This note sets out measurements from patent US20140179898A1.

The test concerns the target IgG1-type humanized monoclonal antibody. In words: stepwise pH affinity chromatography (bound at pH 7.0, elution buffer pH 4.0), bought column.

“HiTrap rProtein A FF (GE Healthcare) (from UniProt P38507 37-327)” gave a pH of the antibody's elution peak of 3.7 pH.
